According to a protein production outcome set (Wang et al. 2014):

Assay: label from the status in PepcDB records

Row | Sequence | protein production
1 | MLDFLAANPLIALVVILAVGLAIGQIRVFGLSLGAAAVLFVALVVSTANTDIVIPMIVYQLGLAMFVYVIGLSAGPAFFSEFAKKGWKLTIFMLLLLATLIGLAWVLIKSLGLDAAIGTGMFTGALTSTPGMAAVVELIEGIDPSLASEPVIGYSLAYPGAVLGSIVVAAVGAKLLKVNHREDARKEGMITAPLVWKGVQLKPGITGRVGDLPRLAGESIIATRIVDDPHTHRLADPDLPITEGMELLINGTEEAVDRAIKALGEERETKIEDTELIYTRLTVSSPEVAGRTVAELDTVAHGFMIARIRQGDSEVVPKPDTVINYSDRIRVVVAPGRVAEVRRFLGDSEKSLADVNLLPLAIGLSLGLLLGAIPIPLPGGTTMSLGFGGGPIIAGLILGALKHTGPLTWQMPFHANRTISTLGLALFLAGVGTSAGAGFRAALTDSSSLIYMAGGLVITLASALLCAVIGMWVLRLRWDEAMGVAAGTTTNPAIISYLNGQTGTDLANRGYATVYPTAMIGKILGAQILFLLL | failed
2 | MLDFYALEDLLTPEEKEVQKAARRFLEKEALPHIRDWWEEGVFPTHLIPRFAELGFLGPTLPPEYGGAGVSSAAYGLICYELERVDSGLRSFVSVQSSLVMYPIYAYGSEEQKREFLPKLARGEMVGCFGLTEPDGGSDPYGNMKTRARREGDTWVLNGTKMWITNGNLAHLAVIWAKDEGGEVLGFLVPTDTPGFQAREVKRKMSLRASVTSELVLEEVRVPESLRLPKALGLKAPLSCLTQARFGIAWGAMGALEAVYEEAVAFAKSRSTFGEPLAKKQLVQAKLAEMLAWHTEGLLLAWRLARLKDEGKLTPAQVSLAKRQNVWKALQAARMARDILGGSGITLEYHAIRHMLNLETVYTYEGTHDVHTLVLGREITGLNAF | not failed
3 | MLDGQSCPLCPSRSSLPAGTSFHQSPMDIVTRTFEAPRTYRPSASVLGRAVRAWTNDRLRGEALYLVAMTGLTILLLMAHYLGWALLTSALAASQGWEPLFWQTQVGSVLVLAGLGLVGFRPAVRVTCRPDAVTLRQGDQTRTLSPPDIQDVRLISAQRYHRHYRRYAATQVFASAVSEQVLCVRTGDGPVIVALPGPEARAALLEHLEALTASASEAAARP | failed
4 | MLDNHDLIVSSVEKNSPAWDAGLTTEDVIVAIDGLRLLDNELDNRLKDFKPKQTITVTYFRRDKLITSRLKLAAIPKNKLKIIPIAKASVLEHHHHHH | not failed
5 | MLDVAPPVITPRGTKIEPSAGAPFEAVRVARDVLHTSRTAALATLDPVSGYPYTTATNIGIEPDGTPFFFAAGLTLHARNMETDARISVTLAPFGKGDALTLPRLTLVGRADRIGPDEVPLAIARYIARYPKAKLYLSLPDTRLYRLRTEGVQINGGPARNASNITPADLRTDLSGAEELMAAAESEATRLNAIKGEASRLAVLAGAKTGRWKITSIDPDGIDLASASDLARLWFAERVETLKQFEKALAQLLK | not failed
6 | MLEKVEEWIKARGLTWRLLIMQKPTRTVAEAAALLGVSESEIVKTLIVLDNAGGVYAVVIPGDKRLNINSMKELAGKPVRLARANEVVELTGYPVGGVPPVALPPNIVLVVDRILLSRKKVYGGGGRENALLEFSPRELVEATGAVVADVSE | not failed
7 | MLELCSIASGSSGNCICVGTDDCHVLIDAGISGKKIENGLNEFDMTATDMHGILVTHEHIDHIAGLGVMARRYHMPIYATKATIGAIKCTKSVGNIDDELFHPIEAGVDFTIGDIEFEPLHISHDAADPVAYRFKNENHAMAVVTDLGTYDDALVSKLQNLDGLLLEANHDINMLQTGAYPYPLKRRIMGDSGHLSNERSGQLLCELLHDKFGSVILGHLSKENNYEKLAYEAVRLEVTMGDNPYKASDFPMYVAKRDRASDRIAVE | failed
8 | MLELRPARAADVPAIAAMHAASWRASYRGILPDDYLDRYAADERLSLWRRRFETASPPWVRLACWDGEPVGFVCLLPEEAPELGVYLDNLHVLPGQQGRGIGRALMAAAAAEAERIAPGRPLYLWVYERNADACAAYDKMGGVVMARREVDTAAGTRAIALRYSWP | failed
9 | MLENSITYEKPLYIIKMNQRKKIVQIALPAMAENLLQMLMGVVDNYLVAQIGLVAVSGVSVANNIITIYQAIFIALGAAVSSLVAKSLGEDNQARVRFYQSESVAITLMLSVVLGFISFVFGSNMLHLLGTTDSVTQAGGIYLAIVGGLVVSLGLQTTLGAILRAQGKARLPMYVSFLTNIVNVILATTAIYIGHWGIVGVAAATVLSRFLGTFVLACQLPIKAILRSMRIKIDKAFLAIALPSAGERLMMRAGDVVIIAIIVKFGTAAVAGNAIGETLTQFNYMPGMGVATATVILVAHNLGQGKKKVIKEVVRESYIISTVFMLLVGACIFFGGRQLTYLFTENKAALQASLVVLFYSFIGGPATSGTLVFTAVWQGLGKAKLTFYATTVGMWLIRIVLGYYLGVSLNLGLAGVWLATLADNVFRWLFLYCLYRKYMQGFNNNLSSS | failed
10 | MLERLKRIHYMFWISLIFMIFPILSVVTGWLSAWHLLIDILFVVAYLGVLTTKSQRLSWLYWGLMLTYVVGNTAFVAVNYIWFFFFLSNLLSYHFSVRSLKSLHVWTFLLAQVLVVGQLLIFQRIEVEFLFYLLVILTFVDLMTFGLVRIRIVEDLKEAQVKQNAQINLLLAENERSRIGQDLHDSLGHTFAMLSVKTDLALQLFQMEAYPQVEKELKEIHQISKDSMNEVRTIVENLKSRTLTSELETVKKMLEIAGIEVQVENHLDKSSLTQELESTASMILLELVTNIIKHAKASKVYLKLERTEKELILTVRDDGCGFASISGDELHTVRNRVFPFSGEVSVISQKHPTEVQVRLLYKERK | failed
11 | MLETAALAAGMSWASGIRLYLAVLTAGVLARLGWLDLPPGLHVLESWWVIGIAGAMAAAEFVADKVPGFDTVWDGIQTFIRIPAGAILAAAAFGQLDPQWMVAAGLIGGTLAGTAHATKAGTRALINVSPEPFSNWVASFTEDITTAGGLLLAFFLPVVFLILLVLFLITAAWLLPKLWRGVRRLHAGLRGNADNQRP | failed
12 | MLFEGLPCLAVWCKNRLSAVLPVGGLNVSENLLEIETHPFDPVLPPKAAVMMMGTFPPKEDKRAMQFHYPNFQNDMWRVYGLVFFNDAAHFQRLSEKAFDAEKIKAFLHERGIASCPTVLKAVRQHGNASDKFLKVVETVDLAAVLAKIPECRHICTTGGKATEILLDIQGGGIKMPKTGETVPFPFAGRDLTLTRLPSTSRAYPLSLAKKAAAYRAFFEMAGLCEKQLLEHHHHHH | failed
13 | MLFEQIAANKRKTVFIILGFFIFVLMVGAAIGIIVWNNYLNGLILAAAIGAVYILIMVMSSSSVVMAMNHAKEVTSKEQAPVLWDTVESMAMVAGIPMPKVYIVEDPSPNAFATGISPEKGAVAVTRGLLNKLERYELEGVIAHEISHIRNYDIRLSTIAIALVAVIAILSDLAMRLIFWGSLTGGRNSRKSDNNNGGGAQIIIYVVALIFVILAPIIATAIQFALSRNREYLADASAVELTRNPDGLIQALQKISGDTKKMEEVSASSESIYFSSPLKSKKDKPGLFDSHPPISSRIERLENM | failed
14 | MLFESINTGCLDGNDTPWMPFAPYSNDVMVKYFKIDPVRGETITLLKAPAGMEMPRHHHTGTVIVYTVQGSWRYKEHDWVAHAGSVVYETASTRHTPQSAYAEGPDIITFNIVAGELLYLDDKDNIIAVENWKTSMDRYLNYCKAHGIRPKDLSTFEG | not failed
15 | MLFGGNRNKMLKTIITSAITYSSTAIDLLIILMLFFAKIKDKKGIRDIYIGQFLGSDVLILVSLFFAFILHYVPDKRLLGLLGIIPIFLGLKALIFGDSDGEKMANKELNNNNNKMNLIKTLMFITIVSCGADNIGLFVPYFISLTPLNLVITLIVFLIMIFLLVFVAQKLANVPTIGEVLEKYSRWFIGFVYIFIGGSVLIENGSIQFIINLFK | failed
16 | MLFIAFAPFGAFALEANSKNDGYSLDDIKYYKIFENEDIPKIMYALRQGDFEIIAELKNEWEIEEEDVSFEYTTSKNPLGELIRDNLYELGQKYEVFEDESDFVSKMNVWATAFTKSMMKKSSEQKDKLIVQTVNALDNLDETLNLFSERLREWYSLYFPEMDNIVKKHDIYVSLVSEYGDREEYTRTKLKKTMPSNVARTISLAAKESMGADVSEFDLKIMKNLADEIKSMYEYRESLQEYLETSMNEIAPNLTKVAGASLGARLISLAGGIERLLRLPASTIQVIGAEKALFAHLRERALPPKHGVIFQHPLIQGSPWWIHGKIARAISCKISIAIRADAFGNDISDMLIEDMNKKVAEIKEKFPEPTRKRRPRPDTRSFGNKGGQDRDRRSQGDRKPSGNRGDSKKGGKPFGKKPAGKDDRRDNRKGDRKPFGGKPKNSGNQPPKERSGEKRRDSTKKVKAERKVIGKTSSQNLEHHHHHH | not failed
